± gives the uncertainty stated by the source.
Test: self-splicing fitness, log relative to wild type (ln ratio); higher = more splicing; Tetrahymena group I intron in knt gene, E. coli kanamycin selection, DiMSum; sequences stand for … in CUCUCU…GGAGGGAAAAGUUAUCAGGCAUGCACCUGGUAGCUAGUCUUUAAACCAAUAGAUUGCAUCGGUUUAAAAGGCAAGACCGUCAAAUUGCGGGAAAGGGGUCAACAGCCGUUCAGUACCAAGUCUCAGGGGAAACUUUGAGAUGGCCUUGCAAAGGGUAUGGUAAUAAGCUGACGGACAUGGUCCUAACCACGCAGCCAAGUCCUAAGUCAACAGAUCUUCUGUUGAUAUGGAUGCAGUUCACAGACUAAAUGUCGGUCGGGGAAGAUGUAUUCUUCUCAUAAGAUAUAGUCGGACCUCUCCUUAAUGGGAGCUAGCGGAUGAAGUGAUGCAACACUGGAGCCGCUGGGAACUAAUUUGUAUGCGAAAGUAUAUUGAUUAGUUUUGGAGUACUCGUGGUCG
Outline: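 Fitness was computed with DiMSum as the error-weighted combination of replicate fold changes, kanamycin versus none, each normalised to wild type. The library randomised all eight intron nucleotides of the P1ex region, with the intron placed in the knt kanamycin-resistance gene on pET-22b(+) in E. coli BL21(DE3). Six replicate transformations were grown overnight at 37°C or 30°C on LB agar with or without 25 μg/mL kanamycin, plus 100 μg/mL carbenicillin, 50 μM IPTG and 0.2% rhamnose. Pooled colonies were amplicon-sequenced on an Illumina HiSeq 2500.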

Row | Sequence | self-splicing fitness (ln) (30 °C) | self-splicing fitness (ln) (37 °C)
1 | ACAAAGCAAUAUUACGAAGC | -3.71 ± 0.22 | -0.444 ± 0.15
2 | ACAAAGCAAUAUUACGAAUA | -3.62 ± 0.29 | -1.95 ± 0.17
3 | ACAAAGCAAUAUUACGAGAU | -4 ± 0.19 | -1.55 ± 0.097
4 | ACAAAGCAAUAUUACGAGCC | – | -1.97 ± 0.25
5 | ACAAAGCAAUAUUACGAUUA | -1.37 ± 0.11 | -0.593 ± 0.11
6 | ACAAAGCAAUAUUACGAUUU | -0.651 ± 0.066 | -0.399 ± 0.078
7 | ACAAAGCAAUAUUACGCACA | -0.593 ± 0.083 | -0.0238 ± 0.099
8 | ACAAAGCAAUAUUACGCGAG | -1.33 ± 0.06 | -0.621 ± 0.072
9 | ACAAAGCAAUAUUACGCGCC | -0.241 ± 0.083 | -0.055 ± 0.1
10 | ACAAAGCAAUAUUACGCGGA | -1.7 ± 0.078 | -0.866 ± 0.072
11 | ACAAAGCAAUAUUACGCUUA | -2.37 ± 0.12 | -1.71 ± 0.13
12 | ACAAAGCAAUAUUACGGAUG | -1.59 ± 0.087 | -1.08 ± 0.1
13 | ACAAAGCAAUAUUACGGCGA | -0.177 ± 0.072 | 0.19 ± 0.094
14 | ACAAAGCAAUAUUACGGGAA | -2.44 ± 0.18 | -2.48 ± 0.17
15 | ACAAAGCAAUAUUACGGUCU | -0.435 ± 0.056 | 0.237 ± 0.079
16 | ACAAAGCAAUAUUACGGUGG | -3.64 ± 0.11 | -2.07 ± 0.12
17 | ACAAAGCAAUAUUACGGUUG | -2.44 ± 0.07 | -1.89 ± 0.09
18 | ACAAAGCAAUAUUACGUAAC | -3.21 ± 0.21 | -1.67 ± 0.14
19 | ACAAAGCAAUAUUACGUCCA | -1.62 ± 0.097 | -0.403 ± 0.1
20 | ACAAAGCAAUAUUACGUCUG | -1.1 ± 0.056 | -0.244 ± 0.074
21 | ACAAAGCAAUAUUACGUGAA | -1.51 ± 0.074 | -1.5 ± 0.083
22 | ACAAAGCAAUAUUACGUGCG | -1.07 ± 0.066 | -0.382 ± 0.076
23 | ACACAGCAAUAUUACGAAAU | -2.47 ± 0.13 | -1.87 ± 0.12
24 | ACACAGCAAUAUUACGAACC | -2.57 ± 0.48 | -1.09 ± 0.45

From the supplement of paper PMC7877785
